Measured values reported in publication PMC11754096.

Target: T-complex protein ring complex (TRiC), endogenous (human (endogenous in HEK293 cells)) (UniProt P17987)
Assay: cryo-EM structure; in situ cryo-electron tomography of FIB-milled HEK Flp-In T-Rex 293 cells, template matching, subtomogram averaging and classification; open TRiC; untreated cells and cells treated with 100 µM HHT for 2 h

percent of all TRiC with a single PFD (HHT-treated cells): 18%
percent of all TRiC with a single PFD (untreated cells): 12%
percent of all TRiC with two PFD (HHT-treated cells): 2%
percent of all TRiC with two PFD (untreated cells): 1%
Substance: prefoldin (PFD), endogenous (complex)
